Assay [1] concerns the target T1, human CD16A (158F) expressed on CHO cells (cAg_34) (human, UniProt P08637 17-254).
T1 construct: also called huCD16A-transfected CHO cells
The assay is described as follows: flow cytometry on huCD16A-transfected CHO cells, on ice, APC goat anti-human IgG detection. As for the experimental part: (§1) To analyze binding of different antibody constructs to CHO cells transfected with human CD16A (cAg_34), relative to CD16 expression by flow cytometry, 1-2×10⁵ were resuspended in 100 μL FACS buffer (PBS (Invitrogen, cat.: 14190-169) containing 2% heat-inactivated FCS (Invitrogen, cat.: 10270-106), and 0.1% sodium azide (Roth, Karlsruhe, Germany, cat.: A1430.0100)) in round-bottom 96-well microtiter plates. After washing in FACS buffer, cells were incubated in 50 μL FACS buffer without antibodies or with titrated antibodies starting at a concentration of 100 μg/mL followed by ten 5-fold serial dilutions for 30 min on ice in the dark. […] After washing, binding was measured by flow cytometry and mean fluorescence intensities (MFI) of cell samples were calculated and corrected for background staining using control cells stained with secondary antibodies only.

The target in assay [2] is T1, human CD16A (158F) expressed on CHO …. The experiment in a line: flow cytometry on huCD16A-transfected CHO cells (cAg_34), one-site fit of MFI, experiment 2. As to the method: as §1
(§2) Equilibrium dissociation constants (KD) of antibody binding were calculated by plotting MFI values and fitting a non-linear regression model for one-site binding to hyperbolic dose-response curves using GraphPad Prism.

The target is the same in assay [3]. The assay is described as follows: flow cytometry on huCD16A-transfected CHO cells (cAg_34), one-site fit of MFI, experiment 3. As to the method: as §1, §2
Assay [4] shares this target. The experiment in a line: flow cytometry on huCD16A-transfected CHO cells (cAg_34), one-site fit of MFI, mean of 3. As to the method:
as §1, §2

The target is the same in assay [5]. The assay is described as follows: flow cytometry on huCD16A-transfected CHO cells (cAg_34), one-site fit of MFI, experiment 1. As to the method: as §1, §2
Assay [6] has as its target T2, human FOLR1-mFc_Avi-tag (sAg_303) (human, UniProt P15328 25-234, limits assumed).
T2 construct: also called human FOLR1 (sAg_303); recombinant human FOLR1
The experiment in a line: ELISA, plate coated with human FOLR1-mFc_Avi-tag (sAg_303), one-site fit, mean of 3. As to the method: (§3) 96 well ELISA plates (F96 Maxisorp Immuno Plate, Nunc, cat: 442404) were coated overnight at 4° C. with 50 μL/well of 10 μg/mL human FOLR1-mFc_Avi-tag in DPBS. After overnight incubation plates were washed three times with PBST and blocked with Candor Blocking solution for 2 h at RT under mild agitation. […] After incubation with the secondary antibodies, the plate was washed five times with PBST and one time with PBS. Chromogenic substrate (1:1 mixture of TMB:TMBB, SeraCare cat: 5120-0048 and 5120-0037) was added and the reaction was stopped by addition of an equal volume of 0.5 M H₂SO₄ after sufficient color development. Absorbance at 450 nm was measured in an ELISA plate reader (Sunrise Absorbance Reader 901000833, Schoeller Instruments). The absorbance values were corrected by subtracting the background of the respective secondary antibody and fitted with a one site binding function (hyperbola) using GraphPad Prism (version 9.3.1. GraphPad Software, La Jolla California USA). KD is the concentration of ligand required to reach half-maximal binding.

Assay [7] deals with T3, human FOLR1 endogenously expressed on tumor cell lines (human, UniProt P15328 25-234). The experiment in a line: cell-based or functional assay.
T3 sequence (P15328 25-234): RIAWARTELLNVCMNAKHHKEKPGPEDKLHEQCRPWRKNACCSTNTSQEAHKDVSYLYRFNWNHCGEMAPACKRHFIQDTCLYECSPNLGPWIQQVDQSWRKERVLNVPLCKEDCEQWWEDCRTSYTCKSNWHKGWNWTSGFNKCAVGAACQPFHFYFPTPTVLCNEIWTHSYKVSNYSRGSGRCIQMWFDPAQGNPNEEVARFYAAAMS
For assay [8], the target named is T3, human FOLR1 endogenously expressed on …. The experiment in a line: flow cytometry on OVCAR-3 cells, 37 C, one-site fit of MFI, mean. As to the method:
(§4) Cells were collected and centrifuged at 400×g, 5 min, 4° C. Cell pellets were resuspended in FACS buffer (PBS (Invitrogen, cat.: 392-0434) containing 2% h.i. FCS (Invitrogen, cat.: 10500-064), and 0.1% sodium azide (Sigma, cat.: S8032)) at 1-5×10⁶ cells/mL. 100 μL/well of the cell suspension were transferred into U-shaped, 96-well micro plates (0.1-0.5×10⁶ cells per well), cells were pelleted at 400×g, 5 min, 4° C., and resuspended in 100 μL/well of serial dilutions of the indicated antibodies in FACS buffer. After 40-50 min incubation at 37° C., cells were washed 3-times with ice-cold FACS buffer. […] After the final incubation step, cells were washed 2-times with ice-cold FACS buffer, and the cell pellet was resuspended in 100 μL FACS buffer. Fluorescence intensities of >1×10⁴ viable cells were analyzed by flow cytometry and the median fluorescence intensity (MFI) was determined for each sample.
(§5) Equilibrium dissociation constants (KD) of antibody binding, mean and standard deviation (SD) were calculated by plotting MFI values and fitting a non-linear regression model for one-site binding to hyperbolic dose-response curves using GraphPad Prism for Windows (v9; GraphPad Software; La Jolla California USA).
(§6) Specific antibody binding capacity (SABC) as a marker for FOLR1 expression level on cells was determined on all tumor cell lines using QIFIKIT.

Assay [9] has the same target. The assay is described as follows: flow cytometry on IGROV-1 cells (FOLR1 high) at 37 °C, FITC anti-human IgG detection. As for the experimental part:
as §4

The target in assay [10] is T4, human CD16A-mFc (158V) (sAg_149) (human, UniProt P08637 17-208).
T4 construct: also called CD16A 158V (sAg_149); recombinant human CD16A 158V
T4 sequence (P08637 17-208 F176V limits assumed): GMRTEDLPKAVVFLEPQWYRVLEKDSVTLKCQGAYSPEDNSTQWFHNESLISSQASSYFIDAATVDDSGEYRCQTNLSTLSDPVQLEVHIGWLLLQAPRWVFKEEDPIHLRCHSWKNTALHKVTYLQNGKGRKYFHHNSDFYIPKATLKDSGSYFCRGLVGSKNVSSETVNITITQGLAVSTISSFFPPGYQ
The experiment in a line: ELISA, plate coated with human CD16A-mFc (158V) (sAg_149), one-site fit, mean of 3. As for the experimental part: After incubation with the secondary antibodies, the plate was washed five times with PBST and one time with PBS. Chromogenic substrate (1:1 mixture of TMB:TMBB, SeraCare cat: 5120-0048 and 5120-0037) was added and the reaction was stopped by addition of an equal volume of 0.5 M H₂SO₄ after sufficient color development. Absorbance at 450 nm was measured in an ELISA plate reader (Sunrise Absorbance Reader 901000833, Schoeller Instruments). The absorbance values were corrected by subtracting the background of the respective secondary antibody and fitted with a one site binding function (hyperbola) using GraphPad Prism (version 9.3.1. GraphPad Software, La Jolla California USA). KD is the concentration of ligand required to reach half-maximal binding.

In assay [11] the target is T3, human FOLR1 endogenously expressed on …. The assay is described as follows: flow cytometry on NCI-H2110 cells, 37 C, one-site fit of MFI, mean. As to the method:
as §4, §5, §6

In assay [12] the target is T2, human FOLR1-mFc_Avi-tag (sAg_303). The experiment in a line: ELISA, plate coated with human FOLR1-mFc_Avi-tag, anti-human Fab-HRP detection, A450. As to the method: as §3
The target of assay [13] is T3, human FOLR1 endogenously expressed on …. The experiment in a line: flow cytometry on OVCAR-3 cells (FOLR1 medium) at 37 °C, FITC anti-human IgG detection. As to the method: as §4
Assay [14] shares this target. The experiment in a line: flow cytometry on IGROV-1 cells, 37 C, one-site fit of MFI, mean. As for the experimental part: as §4, §5, §6
Assay [15] has the same target. The experiment in a line: flow cytometry on HCC-827 cells, 37 C, one-site fit of MFI, mean. As for the experimental part:
as §4, §5, §6

T1 sequence (P08637 17-254 limits assumed): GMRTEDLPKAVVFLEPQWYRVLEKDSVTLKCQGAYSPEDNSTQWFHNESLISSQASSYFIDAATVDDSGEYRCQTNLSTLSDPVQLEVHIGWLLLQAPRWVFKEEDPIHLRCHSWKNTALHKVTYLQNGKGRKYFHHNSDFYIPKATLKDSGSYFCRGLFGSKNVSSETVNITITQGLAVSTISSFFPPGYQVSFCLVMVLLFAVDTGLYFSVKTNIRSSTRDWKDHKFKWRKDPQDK
T2 sequence (P15328 25-234 limits assumed): as the sequence (P15328 25-234) above

B1: scFv-IgAb_148 (CD123-1×CD16a2) (bispecific antibody)
chain 1: QVQLQQSGAEVKKPGASVKVSCKASGYTFTDYYMKWVKQSHGKSLEWMGDIIPSNGATFYNQKFKGKATLTVDRSTSTAYMELSSLRSEDTAVYYCARSHLLRASWFAYWGQGTLVTVSSASTKGPSVFPLAPSSKSTSGGTAALGCLVKDYFPEPVTVSWNSGALTSGVHTFPAVLQSSGLYSLSSVVTVPSSSLGTQTYICNVNHKPSNTKVDKKVEPKSCDKTHTCPPCPAPEFEGGPSVFLFPPKPKDTLMISRTPEVTCVVVAVSHEDPEVKFNWYVDGVEVHNAKTKPREEQYNSTYRVVSVLTVLHQDWLNGKEYKCKVSNKALPAPIEKTISKAKGQPREPQVYTLPPSREEMTKNQVSLTCLVKGFYPSDIAVEWESNGQPENNYKTTPPVLDSDGSFFLYSKLTVDKSRWQQGNVFSCSVMHEALHNHYTQKSLSLSPGGGGGSGGGGSGGGGSGGGGSGGGGSGGGGSSYVLTQPSSVSVAPGQTATISCGGHNIGSKNVHWYQQRPGQSPVLVIYQDNKRPSGIPERFSGSNSGNTATLTISGTQAMDEADYYCQVWDNYSVLFGGGTKLTVLGGSGGSGGSGGSGGSGGSGGSQVQLVQSGAEVKKPGESLKVSCKASGYTFTSYYMHWVRQAPGQGLEWMGAIEPMYGSTSYAQKFQGRVTMTRDTSTSTVYMELSSLRSEDTAVYYCARGSAYYYDFADYWGQGTLVTVSS
chain 2: not shown
notes: also called CD123×CD16A scFv-IgAb_148; CD123/CD16A scFv-IgAb_148
For B1, the “EC50 (read off the curve)” value in assay [1] was roughly 20 nM. Moreover, the Kd in [2] was found to be 18.7 nM; in assay [3], 37.9 nM; in [4], 37.6 nM; in assay [5], 56.2 nM.

B2: anti-FOLR1 IgG1 IgAb_335 (antibody)
chain 1: not shown
chain 2: DIQLTQSPSSLSASVGDRVTITCSVSSSISSNNLHWYQQKPGKAPKPWIYGTSNLASGVPSRFSGSGSGTDYTFTISSLQPEDIATYYCQQWSSYPYMYTFGQGTKVEIKRTVAAPSVFIFPPSDEQLKSGTASVVCLLNNFYPREAKVQWKVDNALQSGNSQESVTEQDSKDSTYSLSSTLTLSKADYEKHKVYACEVTHQGLSSPVTKSFNRGEC
notes: IgG1 with farletuzumab-derived Fv domains and wild-type Fc; also called IgAb_355; anti-FOLR1 IgG1 antibody comprising wild-type Fc
Consider B2, for which the dissociation constant (Kd) in assay [6] worked out at 0.05 nM; in assay [8], 1.8 nM; in assay [10], 3.53 nM; in assay [11] it was 2.3 nM; in [14] it was 4.4 nM; in [15], 3.2 nM. Further, the “EC50 [nM] of ADCP, HCC-78 cells” value in assay [7] was found to be 0.81 nM. Also, the “EC50 [nM] of ADCP, HeLa cells” value in assay [7] turned out to be 0.78 nM. Also, the “Phagocytosis [%], 4 h ADCP, DK-MG cells” value in assay [7] is 0%. Further, the “Phagocytosis [%], 4 h ADCP, HCC-78 cells” value in [7] turned out to be 10.7%. Further, the “Phagocytosis [%], 4 h ADCP, HeLa cells” value in assay [7] was 16.4%. The concentration giving a half-maximal response (EC50 (read off the curve)) in assay [9] is roughly 4 nM; in assay [12], roughly 0.05 nM; in [13] it was roughly 2 nM.

The values are drawn from patent US20240417475A1 (AFFIMED, published 2024).
